B1: SPACA3 (parent)
chain: FTSGFNAAALDYEADGSTNNGIFQ

Variants of: B1
Experiment: protein stability index of a GFP-peptide fusion (GPS, HEK-293T) (PSI 1-6); higher = more stable
Conditions: c terminus: a fixed tail appended
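Also: lentivirally expressed fusions sorted by FACS into six bins by GFP to DsRed ratio, PSI derived from sequencing read proportions per bin multiplied by bin number.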

**Q.** For FTSGFNAAALDHEADGSTNNGIFQ [Y12H], which protein stability index is on record?
**A.** 2.04

**Q.** Which protein stability index does the source give for FTSGFNAAALDIEADGSTNNGIFQ [Y12I] here?
**A.** 2.05

**Q.** For FTSGFNAAALDKEADGSTNNGIFQ [Y12K], which protein stability index is on record?
**A.** 2.04

**Q.** For FTSGFNAAALDLEADGSTNNGIFQ [Y12L], which protein stability index is on record?
**A.** 1.74

**Q.** For FTSGFNAAALDMEADGSTNNGIFQ [Y12M], which protein stability index is on record?
**A.** 1.83

**Q.** With FTSGFNAAALDNEADGSTNNGIFQ [Y12N] as the variant, how does the protein stability index read?
**A.** 2.2

**Q.** With FTSGFNAAALDPEADGSTNNGIFQ [Y12P] as the variant, how does the protein stability index read?
**A.** 2.09

**Q.** With FTSGFNAAALDQEADGSTNNGIFQ [Y12Q] as the variant, how does the protein stability index read?
**A.** 2.25

**Q.** For FTSGFNAAALDREADGSTNNGIFQ [Y12R], which protein stability index is on record?
**A.** 1.78

**Q.** Which protein stability index does the source give for FTSGFNAAALDSEADGSTNNGIFQ [Y12S] here?
**A.** 1.93

**Q.** Which protein stability index does the source give for FTSGFNAAALDTEADGSTNNGIFQ [Y12T] here?
**A.** 2.41

**Q.** With FTSGFNAAALDVEADGSTNNGIFQ [Y12V] as the variant, how does the protein stability index read?
**A.** 2.34

**Q.** Which protein stability index does the source give for FTSGFNAAALDWEADGSTNNGIFQ [Y12W] here?
**A.** 1.39

**Q.** For FTSGFNAAALDYAADGSTNNGIFQ [E13A], which protein stability index is on record?
**A.** 1.76

**Q.** Which protein stability index does the source give for FTSGFNAAALDYCADGSTNNGIFQ [E13C] here?
**A.** 1.87

**Q.** For FTSGFNAAALDYDADGSTNNGIFQ [E13D], which protein stability index is on record?
**A.** 2.32

**Q.** With FTSGFNAAALDYFADGSTNNGIFQ [E13F] as the variant, how does the protein stability index read?
**A.** 2.46

**Q.** Which protein stability index does the source give for FTSGFNAAALDYGADGSTNNGIFQ [E13G] here?
**A.** 1.44

**Q.** For FTSGFNAAALDYHADGSTNNGIFQ [E13H], which protein stability index is on record?
**A.** 2.24

**Q.** For FTSGFNAAALDYIADGSTNNGIFQ [E13I], which protein stability index is on record?
**A.** 1.36

**Q.** For FTSGFNAAALDYKADGSTNNGIFQ [E13K], which protein stability index is on record?
**A.** 2.08

**Q.** With FTSGFNAAALDYLADGSTNNGIFQ [E13L] as the variant, how does the protein stability index read?
**A.** 1.72

**Q.** Which protein stability index does the source give for FTSGFNAAALDYMADGSTNNGIFQ [E13M] here?
**A.** 1.82

**Q.** With FTSGFNAAALDYNADGSTNNGIFQ [E13N] as the variant, how does the protein stability index read?
**A.** 2.09

**Q.** For FTSGFNAAALDYPADGSTNNGIFQ [E13P], which protein stability index is on record?
**A.** 1.55

**Q.** Which protein stability index does the source give for FTSGFNAAALDYQADGSTNNGIFQ [E13Q] here?
**A.** 1.56

**Q.** With FTSGFNAAALDYRADGSTNNGIFQ [E13R] as the variant, how does the protein stability index read?
**A.** 1.66

**Q.** Which protein stability index does the source give for FTSGFNAAALDYSADGSTNNGIFQ [E13S] here?
**A.** 1.78

**Q.** Which protein stability index does the source give for FTSGFNAAALDYTADGSTNNGIFQ [E13T] here?
**A.** 2.21

**Q.** For FTSGFNAAALDYVADGSTNNGIFQ [E13V], which protein stability index is on record?
**A.** 2.08

**Q.** With FTSGFNAAALDYWADGSTNNGIFQ [E13W] as the variant, how does the protein stability index read?
**A.** 3.11

**Q.** For FTSGFNAAALDYYADGSTNNGIFQ [E13Y], which protein stability index is on record?
**A.** 1.61

**Q.** With FTSGFNAAALDYECDGSTNNGIFQ [A14C] as the variant, how does the protein stability index read?
**A.** 2.37

**Q.** With FTSGFNAAALDYEDDGSTNNGIFQ [A14D] as the variant, how does the protein stability index read?
**A.** 2.13

**Q.** For FTSGFNAAALDYEEDGSTNNGIFQ [A14E], which protein stability index is on record?
**A.** 2.14

**Q.** For FTSGFNAAALDYEFDGSTNNGIFQ [A14F], which protein stability index is on record?
**A.** 2.11

**Q.** For FTSGFNAAALDYEGDGSTNNGIFQ [A14G], which protein stability index is on record?
**A.** 1.76

**Q.** With FTSGFNAAALDYEHDGSTNNGIFQ [A14H] as the variant, how does the protein stability index read?
**A.** 2.09

**Q.** For FTSGFNAAALDYEIDGSTNNGIFQ [A14I], which protein stability index is on record?
**A.** 2.05

**Q.** For FTSGFNAAALDYEKDGSTNNGIFQ [A14K], which protein stability index is on record?
**A.** 2.5

**Q.** With FTSGFNAAALDYELDGSTNNGIFQ [A14L] as the variant, how does the protein stability index read?
**A.** 1.8

**Q.** With FTSGFNAAALDYEMDGSTNNGIFQ [A14M] as the variant, how does the protein stability index read?
**A.** 2.02

**Q.** With FTSGFNAAALDYENDGSTNNGIFQ [A14N] as the variant, how does the protein stability index read?
**A.** 1.72

**Q.** With FTSGFNAAALDYEPDGSTNNGIFQ [A14P] as the variant, how does the protein stability index read?
**A.** 2

**Q.** For FTSGFNAAALDYEQDGSTNNGIFQ [A14Q], which protein stability index is on record?
**A.** 2.1

**Q.** Which protein stability index does the source give for FTSGFNAAALDYERDGSTNNGIFQ [A14R] here?
**A.** 2.27

**Q.** Which protein stability index does the source give for FTSGFNAAALDYESDGSTNNGIFQ [A14S] here?
**A.** 1.95

**Q.** Which protein stability index does the source give for FTSGFNAAALDYETDGSTNNGIFQ [A14T] here?
**A.** 1.96

**Q.** Which protein stability index does the source give for FTSGFNAAALDYEVDGSTNNGIFQ [A14V] here?
**A.** 2.17

**Q.** For FTSGFNAAALDYEWDGSTNNGIFQ [A14W], which protein stability index is on record?
**A.** 1.94

**Q.** Which protein stability index does the source give for FTSGFNAAALDYEYDGSTNNGIFQ [A14Y] here?
**A.** 2.09

**Q.** With FTSGFNAAALDYEAAGSTNNGIFQ [D15A] as the variant, how does the protein stability index read?
**A.** 2.11

**Q.** Which protein stability index does the source give for FTSGFNAAALDYEACGSTNNGIFQ [D15C] here?
**A.** 2.27

**Q.** For FTSGFNAAALDYEAEGSTNNGIFQ [D15E], which protein stability index is on record?
**A.** 2.26

**Q.** Which protein stability index does the source give for FTSGFNAAALDYEAFGSTNNGIFQ [D15F] here?
**A.** 2.42

**Q.** Which protein stability index does the source give for FTSGFNAAALDYEAGGSTNNGIFQ [D15G] here?
**A.** 1.68

**Q.** Which protein stability index does the source give for FTSGFNAAALDYEAHGSTNNGIFQ [D15H] here?
**A.** 1.74

**Q.** For FTSGFNAAALDYEAIGSTNNGIFQ [D15I], which protein stability index is on record?
**A.** 2.12

**Q.** For FTSGFNAAALDYEAKGSTNNGIFQ [D15K], which protein stability index is on record?
**A.** 1.65

**Q.** For FTSGFNAAALDYEALGSTNNGIFQ [D15L], which protein stability index is on record?
**A.** 1.58

**Q.** Which protein stability index does the source give for FTSGFNAAALDYEAMGSTNNGIFQ [D15M] here?
**A.** 1.63

**Q.** For FTSGFNAAALDYEANGSTNNGIFQ [D15N], which protein stability index is on record?
**A.** 1.86

**Q.** Which protein stability index does the source give for FTSGFNAAALDYEAPGSTNNGIFQ [D15P] here?
**A.** 1.64

**Q.** For FTSGFNAAALDYEAQGSTNNGIFQ [D15Q], which protein stability index is on record?
**A.** 1.66

**Q.** Which protein stability index does the source give for FTSGFNAAALDYEARGSTNNGIFQ [D15R] here?
**A.** 1.96

**Q.** Which protein stability index does the source give for FTSGFNAAALDYEASGSTNNGIFQ [D15S] here?
**A.** 2

**Q.** For FTSGFNAAALDYEATGSTNNGIFQ [D15T], which protein stability index is on record?
**A.** 1.98

**Q.** For FTSGFNAAALDYEAVGSTNNGIFQ [D15V], which protein stability index is on record?
**A.** 1.43

**Q.** For FTSGFNAAALDYEAWGSTNNGIFQ [D15W], which protein stability index is on record?
**A.** 2.46

**Q.** For FTSGFNAAALDYEAYGSTNNGIFQ [D15Y], which protein stability index is on record?
**A.** 2.47

**Q.** Which protein stability index does the source give for FTSGFNAAALDYEADASTNNGIFQ [G16A] here?
**A.** 2.3

**Q.** For FTSGFNAAALDYEADCSTNNGIFQ [G16C], which protein stability index is on record?
**A.** 1.49

**Q.** With FTSGFNAAALDYEADDSTNNGIFQ [G16D] as the variant, how does the protein stability index read?
**A.** 2.31

**Q.** For FTSGFNAAALDYEADESTNNGIFQ [G16E], which protein stability index is on record?
**A.** 2.31

**Q.** Which protein stability index does the source give for FTSGFNAAALDYEADFSTNNGIFQ [G16F] here?
**A.** 1.96

**Q.** For FTSGFNAAALDYEADHSTNNGIFQ [G16H], which protein stability index is on record?
**A.** 2.19

**Q.** Which protein stability index does the source give for FTSGFNAAALDYEADISTNNGIFQ [G16I] here?
**A.** 1.92

**Q.** With FTSGFNAAALDYEADKSTNNGIFQ [G16K] as the variant, how does the protein stability index read?
**A.** 2.26

**Q.** Which protein stability index does the source give for FTSGFNAAALDYEADLSTNNGIFQ [G16L] here?
**A.** 1.72

**Q.** For FTSGFNAAALDYEADMSTNNGIFQ [G16M], which protein stability index is on record?
**A.** 2

**Q.** Which protein stability index does the source give for FTSGFNAAALDYEADNSTNNGIFQ [G16N] here?
**A.** 2.33

**Q.** For FTSGFNAAALDYEADPSTNNGIFQ [G16P], which protein stability index is on record?
**A.** 1.97

**Q.** With FTSGFNAAALDYEADQSTNNGIFQ [G16Q] as the variant, how does the protein stability index read?
**A.** 1.9

**Q.** Which protein stability index does the source give for FTSGFNAAALDYEADRSTNNGIFQ [G16R] here?
**A.** 1.87

**Q.** Which protein stability index does the source give for FTSGFNAAALDYEADSSTNNGIFQ [G16S] here?
**A.** 1.83

**Q.** With FTSGFNAAALDYEADTSTNNGIFQ [G16T] as the variant, how does the protein stability index read?
**A.** 2.26

**Q.** With FTSGFNAAALDYEADVSTNNGIFQ [G16V] as the variant, how does the protein stability index read?
**A.** 1.78

**Q.** With FTSGFNAAALDYEADWSTNNGIFQ [G16W] as the variant, how does the protein stability index read?
**A.** 1.15

**Q.** For FTSGFNAAALDYEADYSTNNGIFQ [G16Y], which protein stability index is on record?
**A.** 1.66

**Q.** With FTSGFNAAALDYEADGATNNGIFQ [S17A] as the variant, how does the protein stability index read?
**A.** 2.1

**Q.** Which protein stability index does the source give for FTSGFNAAALDYEADGCTNNGIFQ [S17C] here?
**A.** 1.94

**Q.** For FTSGFNAAALDYEADGDTNNGIFQ [S17D], which protein stability index is on record?
**A.** 2.21

**Q.** With FTSGFNAAALDYEADGETNNGIFQ [S17E] as the variant, how does the protein stability index read?
**A.** 2.13

**Q.** For FTSGFNAAALDYEADGFTNNGIFQ [S17F], which protein stability index is on record?
**A.** 1.74

Reference: the supplement of paper PMC10567573
